Experimental data published in publication PMC9191617 (Glycobiology, 2022).

Biological target: the molecule itself
Assay: crystal structure

B1: CML1 (C. cinerea Mucin-binding Lectin 1), recombinant untagged (natural protein, Coprinopsis cinerea, UniProt B3VS76 1-127, looked up)
chain: MAIFHTGSELFIITRGPGKLTLLTWGGLNNLRSVIGAIPTENTGVTKWAVSFSHNYTRFSFIWEGQGEACYQIGNGLTRSPVGRSWSSSSTIHWGSSTVITEDVTSVVPGAVNRDKVTTAYALPDNL
  stoichiometry N: 6
